# Patent US20260250328A1 (published 2026)
# B1: HEV-p239 (other)
# chain: IALTLFNLADTLLGGLPTELISSAGGQLFYSRPVVSANGEPTVKLYTSVENAQQDKGIAIPHDIDLGESRVVIQDYDNQHEQDRPTPSPAPSRPFSVLRANDVLWLSLTAAEYDQSTYGSSTGPVYVSDSVTLVNVATGAQAVARSLDWTKVTLDGRPLSTIQQYSKTFFVLPLRGKLSFWEAGTTKAGYPYNYNTTASDQLLVENAAGHRVAISTYTTSLGAGPVSISAVAVLAPHSV
# Assays:
# Experiment in all cases: SPR
# [1] = target: P2-3E-RBD (mammalian cell expression system)
# [2] = target: P1-5B-RBD (mammalian cell expression system)
# [3] = target: P2-5C-RBD (mammalian cell expression system)
# [4] = target: P2-2C-RBD (mammalian cell expression system)
# [5] = target: P2-3A-RBD (mammalian cell expression system)
# [6] = target: P2-3D-RBD (insect cell expression system)
# [7] = target: P2-2C-RBD (insect cell expression system)
# [8] = target: P2-3A-RBD (insect cell expression system)
# [9] = target: P1-5B-RBD (insect cell expression system)
# [10] = target: P1-1G-RBD (insect cell expression system)
# [11] = target: P2-3E-RBD (insect cell expression system)
# P2-4G = target: P2-4G
binder,measurement,setting,value
B1,Kd,[1],1.24 nM
same,Kd,[2],0.131 nM
same,Kd,[3],0.874 nM
same,Kd,[4],1.02 nM
same,Kd,[5],0.0364 nM
same,Kd,[6],1.8 nM
same,Kd,[7],3.71 nM
same,Kd,[8],0.655 nM
same,Kd,[9],1.13 nM
same,Kd,[10],3.57 nM
same,Kd,[11],1.41 nM
same,Kd,P2-4G,3.4 nM
